Assay results published in patent US20180360907A1.

Target: CCR5 on human monocytes (human) (UniProt P51681)
Assay: cell-based or functional assay

chemotactic index of human monocytes, without RAP-103 (times over control): 2
Substance: human CCL4 (MIP-1β) (from UniProt P13236 24-92) (ligand)
